Target: GRA4 (UniProt Q27002)
Test: exogenous co-IP
Details: reference: wild type TBK1; sites S172

TBK1 (from UniProt Q9UHD2) TBK1 S172A
binding against the reference: weaker
